In US6984624B2, “Composition containing an iron complexing protein and a precursor of nitrogen monoxide metabolism and/or a chemical donor of nitrogen monoxide and uses thereof” (Isocell S.A., priority 2000, dated 2006):

How the values were obtained:
[1] = tested on: Intestinal epithelial cells of the Caco-2 line; assay: Iron fixation at the cellular level over 16 hours of culture (Example 1, FIG. 1); type: cell-based, human; settings: Caco-2 cells, no L-arginine
Procedure: Native bovine Lf was treated at pH 1 so as to substitute the unlabeled iron that it contained in the natural state with ^59Fe labeled iron.
The Lf-^59Fe was then purified in order to remove the nonfixed labeled iron, by gel filtration on a column of SEPHADEX® G-75.
(§1) Intestinal epithelial cells of the Caco-2 line derived from a colon cancer were incubated in a proportion of 2×10^6 cells per ml in an RPMI 1640 medium buffered at pH 7.4, in the presence of 25 mmolar of Hepes, containing 15% (v/v) of fetal calf serum, 2 mmol/l of L-glutamine and 1% (v/v) of a solution of streptomycin-penicillin, sold by the company Gibco.
(§2) Iron fixation at the cellular level was then initiated by adding Lf-^59Fe and/or labeled iron and/or L-arginine.
(§3) One of the cell culture tubes received none of these three constituents, so as to act as a control.
The distribution of the constituents, and also the concentrations at which they were used, appear in Table I below:
The cells were then incubated for a period of 16 hours in Eppendorf tubes kept stirring for the final 2 hours of the culture period. Throughout the incubation period, the amount of cellular iron was measured by centrifugation pellet of the cells a first time after 30 minutes (t=0.5), then after one hour (t=1), and then every hour (t=2 to t=16), using a device for measuring the radioactivity.

[2] = tested on: Intestinal epithelial cells of the Caco-2 line; assay: Degree of iron fixation at the cellular level as a function of concentrations (Example 3); type: cell-based, human; settings: Caco-2 cells, after 72 hours of incubation; tube contents per Table III (mg/ml); Control = 1
Procedure: as §1
Twelve tubes of epithelial cell cultures were prepared according to the conditions described above in Example 1.
as §2, §3
The distribution of the constituents, and also the concentrations at which they were used, appear in Table III below:
The degree of cellular fixation of iron was measured after 72 hours of incubation using a device for measuring the radioactivity.

| Molecule | Persistence of the iron fixed in the cell [1] | Degree of iron fixation in the cells (cpm ^59Fe) [2] [cpm ^59Fe] |
| --- | --- | --- |
| Lf-^59Fe: Native bovine lactoferrin treated at pH 1 and saturated with ^59Fe labeled iron (85% to 100% saturation) (protein, UniProt P24627 20-708, looked up, 59Fe iron-saturated) Lactotransferrin: APRKNVRWCTISQPEWFKCRRWQWRMKKLGAPSITCVRRAFALECIRAIAEKKADAVTLDGGMVFEAGRDPYKLRPVAAEIYGTKESPQTHYYAVAVVKKGSNFQLDQLQGRKSCHTGLGRSAGWIIPMGILRPYLSWTESLEPLQGAVAKFFSASCVPCIDRQAYPNLCQLCKGEGENQCACSSREPYFGYSGAFKCLQDGAGDVAFVKETTVFENLPEKADRDQYELLCLNNSRAPVDAFKECHLAQVPSHAVVARSVDGKEDLIWKLLSKAQEKFGKNKSRSFQLFGSPPGQRDLLFKDSALGFLRIPSKVDSALYLGSRYLTTLKNLRETAEEVKARYTRVVWCAVGPEEQKKCQQWSQQSGQNVTCATASTTDDCIVLVLKGEADALNLDGGYIYTAGKCGLVPVLAENRKSSKHSSLDCVLRPTEGYLAVAVVKKANEGLTWNSLKDKKSCHTAVDRTAGWNIPMGLIVNQTGSCAFDEFFSQSCAPGADPKSRLCALCAGDDQGLDKCVPNSKEKYYGYTGAFRCLAEDVGDVAFVKNDTVWENTNGESTADWAKNLNREDFRLLCLDGTRKPVTEAQSCHLAVAPNHAVVSRSDRAAHVKQVLLHQQALFGKNGKNCPDKFCLFKSETKNLLFNDNTECLAKLGGRPTYEEYLGTEYVTAIANLKKCSTSPLLEACAFLTR | only transiently fixed |  |
| Cell culture tube 2: Table III tube: Lf-^59Fe 0.1 mg/ml alone (protein, UniProt P24627 20-708, looked up, 59Fe iron-saturated) Lactotransferrin: APRKNVRWCTISQPEWFKCRRWQWRMKKLGAPSITCVRRAFALECIRAIAEKKADAVTLDGGMVFEAGRDPYKLRPVAAEIYGTKESPQTHYYAVAVVKKGSNFQLDQLQGRKSCHTGLGRSAGWIIPMGILRPYLSWTESLEPLQGAVAKFFSASCVPCIDRQAYPNLCQLCKGEGENQCACSSREPYFGYSGAFKCLQDGAGDVAFVKETTVFENLPEKADRDQYELLCLNNSRAPVDAFKECHLAQVPSHAVVARSVDGKEDLIWKLLSKAQEKFGKNKSRSFQLFGSPPGQRDLLFKDSALGFLRIPSKVDSALYLGSRYLTTLKNLRETAEEVKARYTRVVWCAVGPEEQKKCQQWSQQSGQNVTCATASTTDDCIVLVLKGEADALNLDGGYIYTAGKCGLVPVLAENRKSSKHSSLDCVLRPTEGYLAVAVVKKANEGLTWNSLKDKKSCHTAVDRTAGWNIPMGLIVNQTGSCAFDEFFSQSCAPGADPKSRLCALCAGDDQGLDKCVPNSKEKYYGYTGAFRCLAEDVGDVAFVKNDTVWENTNGESTADWAKNLNREDFRLLCLDGTRKPVTEAQSCHLAVAPNHAVVSRSDRAAHVKQVLLHQQALFGKNGKNCPDKFCLFKSETKNLLFNDNTECLAKLGGRPTYEEYLGTEYVTAIANLKKCSTSPLLEACAFLTR |  | 1.0 ± 0.2 |
| Cell culture tube 1: Table III tube: Lf-^59Fe 1 mg/ml alone (protein, UniProt P24627 20-708, looked up, 59Fe iron-saturated) Lactotransferrin: APRKNVRWCTISQPEWFKCRRWQWRMKKLGAPSITCVRRAFALECIRAIAEKKADAVTLDGGMVFEAGRDPYKLRPVAAEIYGTKESPQTHYYAVAVVKKGSNFQLDQLQGRKSCHTGLGRSAGWIIPMGILRPYLSWTESLEPLQGAVAKFFSASCVPCIDRQAYPNLCQLCKGEGENQCACSSREPYFGYSGAFKCLQDGAGDVAFVKETTVFENLPEKADRDQYELLCLNNSRAPVDAFKECHLAQVPSHAVVARSVDGKEDLIWKLLSKAQEKFGKNKSRSFQLFGSPPGQRDLLFKDSALGFLRIPSKVDSALYLGSRYLTTLKNLRETAEEVKARYTRVVWCAVGPEEQKKCQQWSQQSGQNVTCATASTTDDCIVLVLKGEADALNLDGGYIYTAGKCGLVPVLAENRKSSKHSSLDCVLRPTEGYLAVAVVKKANEGLTWNSLKDKKSCHTAVDRTAGWNIPMGLIVNQTGSCAFDEFFSQSCAPGADPKSRLCALCAGDDQGLDKCVPNSKEKYYGYTGAFRCLAEDVGDVAFVKNDTVWENTNGESTADWAKNLNREDFRLLCLDGTRKPVTEAQSCHLAVAPNHAVVSRSDRAAHVKQVLLHQQALFGKNGKNCPDKFCLFKSETKNLLFNDNTECLAKLGGRPTYEEYLGTEYVTAIANLKKCSTSPLLEACAFLTR |  | 1.2 ± 0.1 |
| Cell culture tube 3: Table III tube: Lf-^59Fe 0.01 mg/ml alone (protein, UniProt P24627 20-708, looked up, 59Fe iron-saturated) Lactotransferrin: APRKNVRWCTISQPEWFKCRRWQWRMKKLGAPSITCVRRAFALECIRAIAEKKADAVTLDGGMVFEAGRDPYKLRPVAAEIYGTKESPQTHYYAVAVVKKGSNFQLDQLQGRKSCHTGLGRSAGWIIPMGILRPYLSWTESLEPLQGAVAKFFSASCVPCIDRQAYPNLCQLCKGEGENQCACSSREPYFGYSGAFKCLQDGAGDVAFVKETTVFENLPEKADRDQYELLCLNNSRAPVDAFKECHLAQVPSHAVVARSVDGKEDLIWKLLSKAQEKFGKNKSRSFQLFGSPPGQRDLLFKDSALGFLRIPSKVDSALYLGSRYLTTLKNLRETAEEVKARYTRVVWCAVGPEEQKKCQQWSQQSGQNVTCATASTTDDCIVLVLKGEADALNLDGGYIYTAGKCGLVPVLAENRKSSKHSSLDCVLRPTEGYLAVAVVKKANEGLTWNSLKDKKSCHTAVDRTAGWNIPMGLIVNQTGSCAFDEFFSQSCAPGADPKSRLCALCAGDDQGLDKCVPNSKEKYYGYTGAFRCLAEDVGDVAFVKNDTVWENTNGESTADWAKNLNREDFRLLCLDGTRKPVTEAQSCHLAVAPNHAVVSRSDRAAHVKQVLLHQQALFGKNGKNCPDKFCLFKSETKNLLFNDNTECLAKLGGRPTYEEYLGTEYVTAIANLKKCSTSPLLEACAFLTR |  | 1.1 ± 0.1 |
